In the supplement of paper PMC10724198:
± gives the standard deviation of the averaged measurements.

System: Saccharomyces cerevisiae
Assay: protein stability index of tFT-peptide fusion (C-terminal peptide) (PSI (0-1 scale)); higher = more stable (slower turnover)
Conditions: genetic background: wild type; temperature: 30 C
Description: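 Multiplexed protein stability (MPS) profiling in S. cerevisiae. Random 12-aa peptides (tFT-X12 library) are fused to the C-terminus of a sfGFP-mCherry tandem fluorescent timer, after mCherry and a GGGS linker. Cells are FACS-sorted into 8 mCherry/sfGFP bins and deep-sequenced. The protein stability index (PSI) is the read-weighted bin average, scaled from 0 (unstable) to 1 (stable). Only peptides with >10 reads are reported; cells were grown at 30 °C in SC-His with glucose.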
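Note: PSI is a weighted mean of sequencing reads over stability bins, variants kept only with over 10 reads, mCherry proximal and sfGFP distal, peptide attached via GGGS linker.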

Sequence | protein stability index
AADVALQFKPRT | 0.658 ± 0.027
AAFHSSSAFFFN | 0.718 ± 0.019
AAGAGAPRRPLL | 0.683 ± 0.02
AAGGASRHLSGS | 0.71 ± 0.09
AAIVVRLCSLLR | 0.593 ± 0.0091
AALSNRGIHWWK | 0.732 ± 0.018
AAPGMIFRDPAQ | 0.739 ± 0.18
AAPPPRRPCPPL | 0.678 ± 0.038
AAQRGSTMARGG | 0.704 ± 0.064
AARRPARACGGQ | 0.632 ± 0.025
AAWSGGGAGCWT | 0.708 ± 0.041
ACLGVSTPSLGI | 0.672 ± 0.027
ACLIHWVVSGAR | 0.677 ± 0.016
ACPCTLCMALSR | 0.6476 ± 0.0014
ACREVAGAPGGL | 0.671 ± 0.035
ACVRVVRLGCGW | 0.616 ± 0.063
ACWGCGVGRGEV | 0.814 ± 0.12
ADKNQQTVNWRR | 0.6956 ± 0.0019
ADLPALGSCGSY | 0.631 ± 0.013
ADPPLFYPPSHT | 0.69 ± 0.021
ADWGSRRPSRCP | 0.68915 ± 0.00051
AEAFFRIVRTVR | 0.721 ± 0.034
AEAKAVKSVSVR | 0.638 ± 0.042
AEARTRYVPRPR | 0.686 ± 0.02
AEEAEVAGPRHC | 0.777 ± 0.18

Sequence | protein stability index
AEFMRGVFKVSC | 0.6816 ± 0.0036
AELSTRPPAPPL | 0.715 ± 0.096
AERSVRGTTPGG | 0.632 ± 0.051
AETESASRCLHW | 0.776 ± 0.026
AEWGGSTGGCWG | 0.722 ± 0.15
AFASVLPSSLSS | 0.641 ± 0.085
AFDPGLPPRRSD | 0.755 ± 0.011
AFGRLNTWFCFP | 0.719 ± 0.037
AFLVGDVFGRLL | 0.602 ± 0.016
AFMPGLLGDTYE | 0.662 ± 0.022
AFMVFCRSLLAP | 0.684 ± 0.014
AFRCGGGPGDFA | 0.6513 ± 0.0027
AFVLTSRVFFPL | 0.721 ± 0.053
AFWLPAAVPLIF | 0.584 ± 0.022
AFYFGQFEFWRC | 0.698 ± 0.034
AGAATGAGGLQG | 0.672 ± 0.037
AGCGGIWGVWVL | 0.701 ± 0.072
AGEERWGGCLTG | 0.653 ± 0.021
AGGAEAVRRAGG | 0.675 ± 0.019
AGGGGGTRVHWR | 0.682 ± 0.013
AGGGPGLEARSL | 0.612 ± 0.017
AGGGWAVQVGMG | 0.684 ± 0.042
AGGPGWGALVGA | 0.645 ± 0.047
AGGRGGGGGGDA | 0.663 ± 0.0071
AGGSGGGRDRLV | 0.694 ± 0.024

Sequence | protein stability index
AGGSVGEAGSEG | 0.649 ± 0.026
AGGWLGAEGCGG | 0.78 ± 0.033
AGICLRSFRCFW | 0.672 ± 0.0079
AGLGGGARQGAL | 0.672 ± 0.024
AGLLFDSPPLLV | 0.725 ± 0.034
AGPPRTAVSPPL | 0.675 ± 0.016
AGQGSISCWSKD | 0.707 ± 0.045
AGRGGSPRFVGR | 0.657 ± 0.053
AGRGRAIGAGFS | 0.649 ± 0.054
AGRRGVNGGGWG | 0.686 ± 0.039
AGRRTGSRESEQ | 0.612 ± 0.061
AGSAGKWCWCGG | 0.711 ± 0.039
AGSALSSAYTLM | 0.703 ± 0.13
AGSSFDLGSGYS | 0.724 ± 0.083
AGSSGVRLSEFP | 0.671 ± 0.11
AGSYERFSRGHR | 0.688 ± 0.034
AGVLTRGNCCGG | 0.6885 ± 0.005
AGVPCLSVPPLG | 0.683 ± 0.031
AGVTRALSVFLL | 0.54 ± 0.043
AGWCWVWGVELV | 0.687 ± 0.04
AGWGGIWGLWVL | 0.715 ± 0.11
AGYEEWVRDARV | 0.73 ± 0.0075
AGYENKAENKSV | 0.656 ± 0.011
AGYGGILRSRGG | 0.698 ± 0.059
AHMAQQNEQRVK | 0.748 ± 0.071

Sequence | protein stability index
AHQRSRRPKPSR | 0.65 ± 0.072
AHSPPTRISPTH | 0.75 ± 0.097
AHVLQRVRLLSR | 0.618 ± 0.023
AIACYLGLTSYP | 0.647 ± 0.021
AIAGSLSYCWDD | 0.678 ± 0.022
AIANIIERFTLL | 0.63 ± 0.066
AILSDGLTHWGL | 0.736 ± 0.058
AIPAVRFCRTLR | 0.643 ± 0.055
AIRENISIRLNC | 0.482 ± 0.026
AKDSVDYKEGES | 0.6602 ± 0.0041
AKEERKVIRKMK | 0.659 ± 0.063
AKETSINKKALI | 0.6903 ± 0.0047
AKFERRTIGCSA | 0.605 ± 0.0042
AKKKKKKIKTKH | 0.8 ± 0.14
AKSCNSVHALRT | 0.668 ± 0.11
ALASLPPQPHSP | 0.665 ± 0.047
ALCQEFAALEPR | 0.726 ± 0.051
ALFKESMLSTCA | 0.564 ± 0.022
ALLKGASCRTAS | 0.696 ± 0.03
ALLPTLFNSGAV | 0.736 ± 0.015
ALPLLPPHSLPP | 0.617 ± 0.011
ALPLRFSSPGPS | 0.659 ± 0.0068
ALPPLLLLPASP | 0.691 ± 0.0093
ALPPPIPHPLFL | 0.701 ± 0.019
ALPPPLPPPAGP | 0.699 ± 0.077

Sequence | protein stability index
ALQLLNPSLLKY | 0.786 ± 0.06
ALQVKWRGCLRF | 0.733 ± 0.099
ALRMVRHCPVNT | 0.667 ± 0.029
ALSLARVSSPLF | 0.707 ± 0.06
ALSPAPGTSLMR | 0.69 ± 0.016
ALSRRPAAGDGP | 0.641 ± 0.024
ALTGYYNQYRYE | 0.745 ± 0.025
ALVAGGRGRRLW | 0.692 ± 0.087
ALVAPAYYWGDV | 0.745 ± 0.059
ALVRGGYLFFPP | 0.663 ± 0.026
ALWQADTRSVNN | 0.64 ± 0.097
ALYISLRELACP | 0.548 ± 0.018
AMFFAFSRSLMS | 0.639 ± 0.026
AMLDSPRHLPSA | 0.679 ± 0.041
ANSGSRSSRVVG | 0.643 ± 0.1
APAPSPPPPPPD | 0.562 ± 0.037
APDRPTPSLSSP | 0.7057 ± 0.0053
APFRVALPGVCG | 0.623 ± 0.02
APHPYPPTPPAP | 0.725 ± 0.014
APILLFIEPLPP | 0.5631 ± 0.0037
APLPHAASSLPA | 0.6982 ± 0.0046
APPAHPARSHTP | 0.69 ± 0.019
APPARGTGRASL | 0.738 ± 0.017
APPARSTPPPRP | 0.712 ± 0.045
APPHPPPPLPPP | 0.6366 ± 0.0052

Sequence | protein stability index
APPLPPLFPPSP | 0.677 ± 0.047
APPLPPPPLDTS | 0.729 ± 0.011
APPPFLCSPFVA | 0.698 ± 0.0092
APPPHPRHPTHS | 0.777 ± 0.089
APPPMPLPLIPL | 0.633 ± 0.04
APPPPHSSHPPP | 0.713 ± 0.027
APPPPLLPHPTP | 0.736 ± 0.028
APPPPPPAPQPP | 0.619 ± 0.067
APPPPPPSPRVP | 0.71 ± 0.047
APPQFPLTPPPP | 0.647 ± 0.011
APPRPPPRPHPP | 0.571 ± 0.063
APPVAKHHAGKD | 0.647 ± 0.016
APRPRHFPTLPS | 0.812 ± 0.077
APRRVAVAGETS | 0.707 ± 0.043
APSPPPDPATPR | 0.672 ± 0.026
APSSLLTPPACI | 0.734 ± 0.083
APSSPRSSTPRP | 0.763 ± 0.085
APTGGTNVRRPE | 0.726 ± 0.024
APTPPPPLSPRS | 0.69 ± 0.034
APTVPQILVRHA | 0.6736 ± 0.0047
APVGLTFNSSLL | 0.7107 ± 0.0032
APYLPACALSSL | 0.706 ± 0.015
APYSGSAMVIPG | 0.713 ± 0.028
AQAPSPGRAPSP | 0.7158 ± 0.0022
AQFFQALATYPI | 0.677 ± 0.022

Sequence | protein stability index
AQHTGFMRELRR | 0.7278 ± 0.0016
AQPLARTALPRR | 0.775 ± 0.019
AQRKSVLSPDLC | 0.67 ± 0.035
AQTEADGRAHDP | 0.6344 ± 0.0058
ARADIQIACIIE | 0.6418 ± 0.00089
ARCSDPSAATHT | 0.706 ± 0.038
AREVGGRAGRRE | 0.661 ± 0.012
ARFFPLPIPPRS | 0.758 ± 0.078
ARGFSAGAIGVG | 0.646 ± 0.1
ARGGGRSEGGEG | 0.7151 ± 0.0024
ARIGVQRFSGVV | 0.708 ± 0.019
ARLHMSLFRPPA | 0.646 ± 0.011
ARLSLEGASRGE | 0.653 ± 0.023
ARMRQNDKHDGS | 0.662 ± 0.011
ARPDTSPPGTSL | 0.664 ± 0.044
ARPFCPLYTPRG | 0.686 ± 0.043
ARQPMHYRITGC | 0.644 ± 0.063
ARRYVPPRWGSL | 0.679 ± 0.065
ARSDRLPNILPY | 0.679 ± 0.071
ARSDSPRATQAN | 0.697 ± 0.06
ARSFALLGCRRS | 0.677 ± 0.042
ARTGRELVLPKG | 0.663 ± 0.0089
ARWQALTHLIVL | 0.6151 ± 0.0051
ASCAPGDVTQVG | 0.718 ± 0.038
ASCGTAGPCVPF | 0.708 ± 0.019

Sequence | protein stability index
ASCHFSILPTRL | 0.67 ± 0.032
ASCLNYSSNRRP | 0.617 ± 0.064
ASCRRGGAGCLR | 0.735 ± 0.043
ASFLRPQMSLPF | 0.618 ± 0.0095
ASFRPDGYTYSV | 0.622 ± 0.071
ASGAPGRGRGVV | 0.697 ± 0.083
ASGLVVDYTLIA | 0.671 ± 0.025
ASGRARVIGVCR | 0.704 ± 0.029
ASHDIFWAGSRE | 0.766 ± 0.092
ASLFFSLCSLSE | 0.694 ± 0.011
ASLPPPFTMLLL | 0.686 ± 0.051
ASLSKLTLKVTV | 0.586 ± 0.057
ASLTPFFLCSIF | 0.649 ± 0.0073
ASPALPAPRSAP | 0.704 ± 0.057
ASPRLTGCPNPR | 0.6863 ± 0.002
ASRIGHIGQPVI | 0.6889 ± 0.00017
ASRRMGGHNALS | 0.705 ± 0.013
ASSPSPPTPPPP | 0.647 ± 0.056
ASSTSSPPPLPP | 0.666 ± 0.032
ASTLFDCHVLGA | 0.697 ± 0.039
ASVVEVSSLSLL | 0.629 ± 0.052
